The subject of data set [1] is primary human cell cultures (11 cell types). As to the kind of experiment: Custom gene array, 11 human cell types in normoxia or hypoxia for 6 hr and 18 hr. It counts as cell-based. As for the experimental part:
Equivalent cultures of non-immortalized, non-transformed primary human cells of 10 distinct types, were cultured in either normoxia or were exposed to hypoxia for 6 hr and 18 hr, and gene expression changes were determined. […] Moreover, unlike the vast majority of information in the public domain relating to genes responsive to hypoxia, all of these cells were human and were cultured without any modifications following isolation from the human donors.
A non-primary cell type (#9) was used to represent neurons, since primary human neurons are difficult to source. Therefore a total of 11 cell types are compared. It should be noted that RNA from hepatocytes at the […] timepoint of hypoxia was not available for this work.
Each RNA sample was hybridised to duplicate or triplicate arrays, to ensure reproducible data, and was analysed using GeneSpring software. Data from replicate arrays were merged during analysis to generate mean values. Data normalisation was achieved per-array using the aforementioned list of control genes, such that differences in RNA labelling or hybridization due to experimental variation were corrected by referencing each gene to the mean value of the reference genes on the same array. Also, for each gene, expression values were obtained which represent the value in each experimental condition (e.g. macrophages 6 hr hypoxia) as compared to the median of value of that gene throughout the full range of experimental conditions (i.e. from all cell types). […] This is common in microarray data analysis.

Data set [2] concerns human breast and ovary tumors. As to the kind of experiment: Custom gene array, breast and ovary tumors versus normal adjacent tissue. Particulars: Table 19; for gene expression level on custom gene array, Breast nor H / gene expression level on custom gene array, Breast nor K / gene expression level on custom gene array, Ovary nor E / gene expression level on custom gene array, Ovary nor F / gene expression level on custom gene array, Ovary nor G: normal adjacent tissue; for gene expression level on custom gene array, Breast nor H / gene expression level on custom gene array, Breast tum H: patient H; for gene expression level on custom gene array, Breast nor K / gene expression level on custom gene array, Breast tum K: patient K; for gene expression level on custom gene array, Breast tum H / gene expression level on custom gene array, Breast tum K / gene expression level on custom gene array, Ovary tum E / gene expression level on custom gene array, Ovary tum F / gene expression level on custom gene array, Ovary tum G: tumor tissue; for gene expression level on custom gene array, Ovary nor E / gene expression level on custom gene array, Ovary tum E: patient E; for gene expression level on custom gene array, Ovary nor F / gene expression level on custom gene array, Ovary tum F: patient F; for gene expression level on custom gene array, Ovary nor G / gene expression level on custom gene array, Ovary tum G: patient G. The source says:
A study has been performed to examine the expression of these genes in a selection of breast and ovary tumors, comparing expression with normal adjacent tissue from the same patient. There is expected to be a large degree of variation between different patients, and the study here contains only 5 patients with a range of diagnoses.
Patients are designated as Letters:
E: person. Diagnosis: ovarian adenocarcinoma. Normal ovarian tissue derived from an age-matched separate individual.
: person. Diagnosis: poorly differentiated adenocarcinoma. Normal ovarian tissue derived from the same individual.
G: person. Diagnosis: moderately-differentiated adenocarcinoma. Normal ovarian tissue derived from the same individual.
H: person. Diagnosis: invasive ductal carcinoma. Normnal breast tissue derived from the same individual.
K: person. Diagnosis: invasive ductal carcinoma. Normal breast tissue derived from the same individual.
Data normalisation was done per-chip to correct for differences in labelling and hybridization efficiency. Per-gene normalisation was done such that the expression values of each gene are relative to the median value of that gene throughout the series of samples. By comparing the expression values under normal (nor) and tumor (turn) for a single patient, differences in expression between the normal and malignant tissue of that patient can be inferred.

B1: p2A23 (nucleic acid, listed as Homo Sapiens)
DNA: AGAAGAAGCTGGCCAAGGATATGGGAGCAACCACCATGGACCAGAAGTCTCTCTGGGCAGGTGTAGTGGTCTTGCTGCTTCTCCAGGGAGGATCTGCCTACAAACTGGTTTGCTACTTTACCAACTGGTCCCAGGACCGGCAGGAACCAGGAAAATTCACCCCTGAGAATATTGACCCCTTCCTATGCTCTCATCTCATCTATTCATTCGCCAGCATCGAAAACAACAAGGTTATCATCAAGGACAAGAGTGAAGTGATGCTCTACCAGACCATCAACAGTCTCAAAACCAAGAATCCCAAACTGAAAATTCTCTTGTCCATTGGAGGGTACCTGTTTGGTTCCAAAGGGTTCCACCCTATGGTGGATTCTTCTACATCACGCTTGGAATTCATTAACTCCATAATCCTGTTTCTGAGGAACCATAACTTTGATGGACTGGATGTAAGCTGGATCTACCCAGATCAGAAAGAAAACACTCATTTCACTGTGCTGATTCATGAGTTAGCAGAAGCCTTTCAGAAGGACTTCACAAAATCCACCAAGGAAAGGCTTCTCTTGACTGCGGGCGTATCTGCAGGGAGGCAAATGATTGATAACAGCTATCAAGTTGAGAAACTGGCAAAAGATCTGGATTTCATCAACCTCCTGTCCTTTGACTTCCATGGGTCTTGGGAAAAGCCCCTTATCACTGGCCACAACAGCCCTCTGAGCAAGGGGTGGCAGGACAGAGGGCCAAGCTCCTACTACAATGTGGAATATGCTGTGGGGTACTGGATACATAAGGGAATGCCATCAGAGAAGGTGGTCATGGGCATCCCCACATATGGGCACTCCTTCACACTGGCCTCTGCAGAAACCACCGTGGGGGCCCCTGCCTCTGGCCCTGGAGCTGCTGGACCCATCACAGAGTCTTCAGGCTTCCTGGCCTATTATGAGATCTGCCAGTTCCTGAAAGGAGCCAAGATCACGCGCCTCCAGGATCAGCAGGTTCCCTACGCAGTCAAGGGGAACCAGTGGGTGGGCTATGATGATGTGAAGAGTATGGAGACCAAGGTTCAGTTCTTAAAGAATTTAAACCTGGGAGGAGCCATGATCTGGTCTATTGACATGGATGACTTCACTGGCAAATCCTGCAACCAGGGCCCTTACCCTCTTGTCCAAGCAGTCAAGAGAAGCCTTGGCTCCTTGTGAAGGATTAACTTACAGAGAAGCAGGCAAGATGACCTTGCTGCCTGGGGCCTGCTCTCTCCCAGGAATTCTCATGTGGGATTCCCCTTGCCAGGCTGGCCTTTGGATCTCTCTTCCAAGCCTTTCCTGACTTCCTCTTAGATCATAGATTGGACCTGGTTTTGTTTTCCTGCAGCTGTTGACTTGTTGCCCTGAAGTACAATAAAAAAAATTCATTTTGCTCCAGTA
Turning to B1, the mRNA expression level in data set [1] (cell type #1, HY (hypoxia) 6 hr) was found to be 1.24; in data set [1] (cell type #1, HY (hypoxia) 18 hr), 1.15; in data set [1] (cell type #1, NO (normoxia)), 1.79; in data set [1] (cell type #2, HY (hypoxia) 6 hr), 2.26; in data set [1] (cell type #2, HY (hypoxia) 18 hr), 1.79; in data set [1] (cell type #2, NO (normoxia)), 1.81. In addition, the mRNA expression level in data set [1] (cell type #3, HY (hypoxia) 6 hr) worked out at 1.28; in data set [1] (cell type #3, HY (hypoxia) 18 hr) it was 0.95; in data set [1] (cell type #3, NO (normoxia)) it was 1.11; in data set [1] (cell type #4, HY (hypoxia) 6 hr) it was 0.87; in data set [1] (cell type #4, HY (hypoxia) 18 hr), 0.77; in data set [1] (cell type #4, NO (normoxia)) it was 1.26. For the same molecule, the mRNA expression level in data set [1] (cell type #5, HY (hypoxia) 6 hr) is 1.43; in data set [1] (cell type #5, NO (normoxia)), 0.77; in data set [1] (cell type #6, HY (hypoxia) 6 hr) it was 0.91; in data set [1] (cell type #6, NO (normoxia)) it was 0.76. Besides, in data set [2], the “gene expression level on custom gene array, Breast nor H” value turned out to be 1.36. The “gene expression level on custom gene array, Breast nor K” value in data set [2] is given as 0.91. The “gene expression level on custom gene array, Breast tum H” value in data set [2] was found to be 2.22. The “gene expression level on custom gene array, Breast tum K” value in data set [2] is reported as 2.01. Further, the “gene expression level on custom gene array, Ovary nor E” value in data set [2] is given as 0.66. Further, the “gene expression level on custom gene array, Ovary nor F” value in data set [2] was determined as 0.48. The “gene expression level on custom gene array, Ovary nor G” value in data set [2] came out at 4.18. For the same molecule, the “gene expression level on custom gene array, Ovary tum E” value in data set [2] is 0.78. Also, in data set [2], the “gene expression level on custom gene array, Ovary tum F” value came out at 0.61. The “gene expression level on custom gene array, Ovary tum G” value in data set [2] stood at 0.74.

B2: p1K9 (nucleic acid, listed as Homo Sapiens)
DNA: AGTGTGAAATCTTCAGAGAAGAATTTCTCTTTAGTTCTTTGCAAGAAGGTAGAGATAAAGACACTTTTTCAAAAATGGCAATGGTATCAGAATTCCTCAAGCAGGCCTGGTTTATTGAAAATGAAGAGCAGGAATATGTTCAAACTGTGAAGTCATCCAAAGGTGGTCCCGGATCAGCGGTGAGCCCCTATCCTACCTTCAATCCATCCTCGGATGTCGCTGCCTTGCATAAGGCCATAATGGTTAAAGGTGTGGATGAAGCAACCATCATTGACATTCTAACTAAGCGAAACAATGCACAGCGTCAACAGATCAAAGCAGCATATCTCCAGGAAACAGGAAAGCCCCTGGATGAAACACTTAAGAAAGCCCTTACAGGTCACCTTGAGGAGGTTGTTTTAGCTCTGCTAAAAACTCCAGCGCAATTTGATGCTGATGAACTTCGTGCTGCCATGAAGGGCCTTGGAACTGATGAAGATACTCTAATTGAGATTTTGGCATCAAGAACTAACAAAGAAATCAGAGACATTAACAGGGTCTACAGAGAGGAACTGAAGAGAGATCTGGCCAAAGACATAACCTCAGACACATCTGGAGATTTTCGGAACGCTTTGCTTTCTCTTGCTAAGGGTGACCGATCTGAGGACTTTGGTGTGAATGAAGACTTGGCTGATTCAGATGCCAGGGCCTTGTATGAAGCAGGAGAAAGGAGAAAGGGGACAGACGTAAACGTGTTCAATACCATCCTTACCACCAGAAGCTATCCACAACTTCGCAGAGTGTTTCAGAAATACACCAAGTACAGTAAGCATGACATGAACAAAGTTCTGGACCTGGAGTTGAAAGGTGACATTGAGAAATGCCTCACAGCTATCGTGAAGTGCGCCACAAGCAAACCAGCTTTCTTTGCAGAGAAGCTTCATCAAGCCATGAAAGGTGTTGGAACTCGCCATAAGGCATTGATCAGGATTATGGTTTCCCGTTCTGAAATTGACATGAATGATATCAAAGCATTCTATCAGAAGATGTATGGTATCTCCCTTTGCCAAGCCATCCTGGATGAAACCAAAGGAGATTATGAGAAAATCCTGGTGGCTCTTTGTGGAGGAAACTAAACATTCCCTTGATGGTCTCAAGCTATGATCAGAAGACTTTAATTATATATTTTCATCCTATAAGCTTAAATAGGAAAGTTTCTTCAACAGGATTACAGTGTAGCTACCTACATGCTGAAAAATATAGCCTTTAAATCATTTTTATATTATAACTCTGTATAATAGAGATAAGTCCATTTTTTAAAAATGTTTTCCCCAAACCATAAAACCCTATACAAGTTGTTCTAGTAACAATACATGAGAAAGATGTCTATGTAGCTGAAAATAAAATGACGTCACAAGAC
As for B2, in data set [2], the “gene expression level on custom gene array, Breast nor H” value stood at 1.20; the “gene expression level on custom gene array, Breast nor K” value was 0.23; the “gene expression level on custom gene array, Breast tum H” value is on record as 0.54; the “gene expression level on custom gene array, Breast tum K” value is on record as 0.12. Further, in data set [2], the “gene expression level on custom gene array, Ovary nor E” value came to 0.46; the “gene expression level on custom gene array, Ovary nor F” value is recorded as 1.33; the “gene expression level on custom gene array, Ovary nor G” value was 1.07; the “gene expression level on custom gene array, Ovary tum E” value worked out at 4.09. Also, in data set [2], the “gene expression level on custom gene array, Ovary tum F” value is recorded as 1.17 and the “gene expression level on custom gene array, Ovary tum G” value stood at 0.31.

The values are drawn from US20030203372A1, “Analysis method” (priority 2000, published 2003).
